Source: publication PMC11505474, “Functional Characterization of the Ciliate Stylonychia lemnae Serotonin N-Acetyltransferase, a Pivotal Enzyme in Melatonin Biosynthesis and Its Overexpression Leads to Peroxidizing Herbicide Tolerance in Rice” (Antioxidants, 2024)

Key:
COc1ccc2[nH]cc(CCN)c2c1 = test: purified protein; details: acetyl-CoA 0.5 mM co-substrate, 100 mM potassium phosphate, pH 8.8 (or varying pH), 55 °C (general assay)
NCCc1c[nH]c2ccc(O)cc12 = test: purified protein; details: acetyl-CoA 0.5 mM co-substrate, 100 mM potassium phosphate, pH 8.8 (or varying pH), 55 °C (general assay)

SlSNAT (Stylonychia lemnae serotonin N-acetyltransferase) (Stylonychia lemnae)
Km (COc1ccc2[nH]cc(CCN)c2c1): 246 µM
Km (NCCc1c[nH]c2ccc(O)cc12): 776 µM
